Experiment [1] has as its target T1, human mesothelin with His-tag (R&D Systems) (human, UniProt Q13421 296-580).
T1 construct: also called huMesothelin; MSLN; not shown: His-tag
The experiment can be described thus: ELISA, IgG on captured His-huMesothelin (R&D). A general note: An ELISA detects its analyte on a solid surface through an enzyme-linked reagent.

The target in experiment [2] is T2, human mesothelin with His-tag (in house) (human, UniProt Q13421 296-598, limits assumed).
T2 construct: also called huMesothelin; MSLN; not shown: His-tag
The experiment can be described thus: ELISA, IgG on captured His-huMesothelin (in house).

The target in another experiment is T3, human mesothelin (SPR) (human, UniProt Q13421 296-598, limits assumed).
T3 construct: also called human MSLN
The experiment can be described thus: SPR, IgG captured on Protein A, 50 nM human mesothelin, 25 C, 1:1 fit. (In general: Surface plasmon resonance follows binding to a sensor surface in real time, without labels.)

Values joined by “and” are separate entries in the source; they are usually repeats but may differ in a detail not shown here. Equal values may be shown once.

T2 sequence (Q13421 other isoform, or with tags, fused parts or gaps limits assumed): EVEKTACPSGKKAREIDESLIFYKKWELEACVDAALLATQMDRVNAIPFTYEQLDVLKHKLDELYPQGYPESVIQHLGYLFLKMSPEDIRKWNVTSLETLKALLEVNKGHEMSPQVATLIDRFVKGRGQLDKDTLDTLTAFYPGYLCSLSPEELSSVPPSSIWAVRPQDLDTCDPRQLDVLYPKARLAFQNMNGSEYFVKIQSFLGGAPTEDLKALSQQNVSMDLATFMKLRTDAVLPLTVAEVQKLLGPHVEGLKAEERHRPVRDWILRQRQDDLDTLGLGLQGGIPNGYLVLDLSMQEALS
T1 sequence (Q13421 other isoform, or with tags, fused parts or gaps limits assumed): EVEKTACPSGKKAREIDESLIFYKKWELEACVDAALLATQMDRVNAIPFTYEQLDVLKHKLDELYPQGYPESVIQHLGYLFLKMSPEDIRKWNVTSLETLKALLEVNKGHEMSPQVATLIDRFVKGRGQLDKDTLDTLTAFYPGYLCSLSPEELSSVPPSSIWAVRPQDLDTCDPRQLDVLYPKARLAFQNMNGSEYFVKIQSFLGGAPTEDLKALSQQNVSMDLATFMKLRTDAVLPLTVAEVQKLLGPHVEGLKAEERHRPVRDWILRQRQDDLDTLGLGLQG

B1: IgG VH 001/15438 + VL 000/15456 (antibody, V domains shown)
VH: QVQLVQSGAEVKKPGASVKVSCKASGYSFTGYTMNWVRQAPGQGLEWMGLITPYNGASSYNQKFRGKATMTVDTSTSTVYMELSSLRSEDTAVYYCARGGYDGRGFDYWGQGTLVTVSS
VL: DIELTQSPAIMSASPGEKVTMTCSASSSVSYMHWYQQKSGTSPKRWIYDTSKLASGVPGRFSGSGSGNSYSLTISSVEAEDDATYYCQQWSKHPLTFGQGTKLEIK
In the case of B1, the results for the EC50 in experiment [1] and in experiment [2] were 0.0228 µg/mL and 0.032 µg/mL, respectively.

B2: IgG VH 001/15438 + VL 001/15457 (antibody, V domains shown)
VH: QVQLVQSGAEVKKPGASVKVSCKASGYSFTGYTMNWVRQAPGQGLEWMGLITPYNGASSYNQKFRGKATMTVDTSTSTVYMELSSLRSEDTAVYYCARGGYDGRGFDYWGQGTLVTVSS
VL: DIQMTQSPSSLSASVGDRVTITCSASSSVSYMHWYQQKSGKAPKLLIYDTSKLASGVPSRFSGSGSGTDFTLTISSLQPEDFATYYCQQWSKHPLTFGQGTKLEIK
notes: also called VL001/VH001; VL01/VH01
For B2, the EC50 in experiment [1] came out at 0.0155 µg/mL; in experiment [2], 0.0203 µg/mL. The dissociation constant (Kd) in the experiment with human mesothelin (SPR) is 0.263 nM and 0.26 nM.

B3: IgG VH 000/15437 + VL 001/15457 (antibody, V domains shown)
VH: not shown
VL: DIQMTQSPSSLSASVGDRVTITCSASSSVSYMHWYQQKSGKAPKLLIYDTSKLASGVPSRFSGSGSGTDFTLTISSLQPEDFATYYCQQWSKHPLTFGQGTKLEIK
With B3, the values for the EC50 in experiment [1] and in experiment [2] were 0.0182 µg/mL and 0.0178 µg/mL, respectively.

One may read the EC50 as the concentration needed to bring the measured effect to its halfway point. Read a high EC50 as a need for much substance. The Kd is the equilibrium constant for the complex coming apart. Lower therefore signals higher affinity.

These data come from patent US20170051072A1 (UNITED STATES OF AMERICA AS REPRESENTED BY THE SECRETARY …, published 2017).
